Source: patent US20200040101A1 (ASKGENE PHARMA, published 2020)

Assays:
[1] = biological target: T1, human Claudin 18.2 (CLDN18.2) expressed on cells (human, UniProt P56856-2 1-261); test: FACS, hybridoma supernatant of the first fusion, AF 647 anti-IgG
T1 construct: whole, on cells; also called CLD18.2; CLD18A2

[2] = biological target: T1, human Claudin 18.2 (CLDN18.2) expressed …; test: FACS, hybridoma subclone supernatant, CLDN18.2 and CLDN18.1 cells in one plot

Row | Binder | binding result [1] | binding result [2]
1 | 30B5 (mouse hybridoma subclone antibody) (antibody, V domains shown, also remade as chimeric antibody with human IgG1 and kappa) VH: EVKLEESGGGLVQPGGSMKLSCVASGFTFSNYWMNWVRQSPEKGLEWVAEIRLKSKNYATHYAESVKGRFTISRDDSIGSVYLQMNNLRAEDTGIYYCARGHYGTNYGDYWGQGTSVTVSS VL: DIVMTQSPSSLTVTAGEKVTVSCKSSQSLFNSGNQKHYLTWYQQKPGQPPKLLIYRASTRESGVPDRFTGSGSGTDFTLTIRNVQAEDLAVYYCQNDYSFPLTFGAGTKLELK | binds | –
2 | 79C4 (mouse hybridoma subclone antibody) (antibody, V domains shown, also remade as chimeric antibody with human IgG1 and kappa (pFUSE vectors)) VH: EVKLEESGGGLVQPGGSMKLSCVASGFTFSNYWMNWVRQSPEKGLEWVAEIRLKSKNYATHYAESVKGRFTISRDDSIGSVYLQMNNLRAEDTGIYYCARGHYGTNYGDYWGQGTSVTVSS VL: DIQTTQSPSSLSASLGERVTLTCRASQEISGYLSWLQQKPDGTIKRLIYAASTLDSGVPKRFSGSRSGSDYSLTINSLESEDFVDYYCLQYDSSPWTFGGGTKLEIK | – | binds
3 | 83G3 (mouse hybridoma subclone antibody) (antibody, V domains shown, also remade as chimeric antibody with human IgG1 and kappa) VH: QVQLQQSGAELAKPGASVKLSCKASGFTFTSYWIHWVKQRPGQGLEWIGYIDPSNTYTKFNQKFKDKATLTADKSSSTAYMQLNSLTFEDSAVYYCATGRGFAYWGQGTLVTVSS VL: DIVMTQSPSSLTVTAGEKVTVSCKSSQSLFNSGNQKHYLTWYQQKPGQPPKLLIYRASTRESGVPDRFTGSGSGTDFTLTIRNVQAEDLAVYYCQNDYSFPLTFGAGTKLELK | – | binds
